{
  "source": "paper PMC2751797",
  "substrate": "NC(=O)c1cc(N2CC2)c([N+](=O)[O-])cc1[N+](=O)[O-]",
  "assay": "purified protein",
  "type": "biochemical, Escherichia coli",
  "conditions": "NADPH 60 μM fixed, 10 mM Tris-HCl pH 7.5, 23 °C",
  "data": [
    {"protein": "NfsB (His6-NfsB) (Escherichia coli K-12) (protein) MDIISVALKRHSTKAFDASKKLTPEQAEQIKTLLQYSPSSTNSQPWHFIVASTEEGKARVAKSAAGNYVFNERKMLDASHVVVFCAKTAMDDVWLKLVVDQEDADGRFATPEAKAANDKGRKFFADMHRKDLHDDAEWMAKQVYLNVGNFLLGVAALGLDAVPIEGFDAAILDAEFGLKEKGYTSLVVVPVGHHSVEDFNATLPKSRLPQNITLTEV", "values": [
      {"measurement": "Km", "value": "79 ± 22", "unit": "µM"},
      {"measurement": "kcat/Km", "value": 26000, "unit": "M⁻¹ s⁻¹"}
    ]}
  ]
}
